Reference: the supplement of paper PMC9876800

Tested on: peptide library, one residue held at a place counted from the S/T acceptor
Assay: relative phosphorylation of the sub-library (ratio to the mean residue at this position); higher = residue favoured
In short: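 Each biotinylated degenerate peptide sub-library fixed one residue at one position around a central Ser/Thr and was incubated with a purified recombinant kinase, a human or orthologue construct, in 384-well plates. The 90 min reactions, under kinase-specific conditions, contained 50 μM peptide and 50 μM ATP spiked with γ-32P-ATP. Phosphorylation was read by phosphorimaging spots on streptavidin membranes and quantifying them by densitometry. Relative sub-library phosphorylation expresses each value as a ratio to the mean residue at that position.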

Chain of EIF2AK4, construct: aa191-1024, human (Q9P2K8 191-1024, looked up): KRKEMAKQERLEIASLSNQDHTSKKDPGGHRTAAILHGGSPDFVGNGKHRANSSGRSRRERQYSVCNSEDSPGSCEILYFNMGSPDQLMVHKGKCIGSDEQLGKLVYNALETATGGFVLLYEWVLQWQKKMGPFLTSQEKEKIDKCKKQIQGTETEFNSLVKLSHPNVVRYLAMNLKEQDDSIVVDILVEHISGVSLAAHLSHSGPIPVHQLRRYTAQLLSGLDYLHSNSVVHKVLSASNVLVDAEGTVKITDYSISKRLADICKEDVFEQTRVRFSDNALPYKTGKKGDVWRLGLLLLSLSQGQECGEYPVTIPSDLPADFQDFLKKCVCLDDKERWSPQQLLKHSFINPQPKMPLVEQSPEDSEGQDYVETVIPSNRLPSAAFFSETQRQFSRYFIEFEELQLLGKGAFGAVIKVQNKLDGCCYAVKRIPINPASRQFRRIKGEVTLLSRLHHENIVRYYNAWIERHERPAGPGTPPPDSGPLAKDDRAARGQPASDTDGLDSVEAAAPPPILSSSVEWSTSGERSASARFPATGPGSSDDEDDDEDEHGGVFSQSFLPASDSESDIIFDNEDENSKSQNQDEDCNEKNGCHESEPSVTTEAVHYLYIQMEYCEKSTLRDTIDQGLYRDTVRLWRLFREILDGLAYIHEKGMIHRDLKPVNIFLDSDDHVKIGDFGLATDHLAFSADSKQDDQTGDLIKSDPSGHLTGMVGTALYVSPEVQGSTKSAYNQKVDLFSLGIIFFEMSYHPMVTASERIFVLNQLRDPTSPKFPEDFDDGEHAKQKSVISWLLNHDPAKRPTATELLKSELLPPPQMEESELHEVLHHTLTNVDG
Chain of DMPK, construct: aa24-433, human (Q09013 24-433, looked up): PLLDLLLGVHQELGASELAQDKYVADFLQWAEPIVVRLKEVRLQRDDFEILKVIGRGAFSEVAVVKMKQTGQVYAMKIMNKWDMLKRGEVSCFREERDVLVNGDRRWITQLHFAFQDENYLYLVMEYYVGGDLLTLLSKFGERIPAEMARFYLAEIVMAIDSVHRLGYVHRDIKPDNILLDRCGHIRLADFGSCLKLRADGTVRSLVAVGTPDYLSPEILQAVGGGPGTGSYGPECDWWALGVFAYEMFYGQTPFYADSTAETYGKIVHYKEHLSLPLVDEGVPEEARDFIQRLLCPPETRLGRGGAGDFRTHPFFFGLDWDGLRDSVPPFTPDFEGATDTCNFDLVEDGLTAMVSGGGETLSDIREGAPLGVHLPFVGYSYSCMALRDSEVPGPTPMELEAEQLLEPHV
Chain of STK38L, construct: Full length, human (Q9Y2H1 whole entry, looked up): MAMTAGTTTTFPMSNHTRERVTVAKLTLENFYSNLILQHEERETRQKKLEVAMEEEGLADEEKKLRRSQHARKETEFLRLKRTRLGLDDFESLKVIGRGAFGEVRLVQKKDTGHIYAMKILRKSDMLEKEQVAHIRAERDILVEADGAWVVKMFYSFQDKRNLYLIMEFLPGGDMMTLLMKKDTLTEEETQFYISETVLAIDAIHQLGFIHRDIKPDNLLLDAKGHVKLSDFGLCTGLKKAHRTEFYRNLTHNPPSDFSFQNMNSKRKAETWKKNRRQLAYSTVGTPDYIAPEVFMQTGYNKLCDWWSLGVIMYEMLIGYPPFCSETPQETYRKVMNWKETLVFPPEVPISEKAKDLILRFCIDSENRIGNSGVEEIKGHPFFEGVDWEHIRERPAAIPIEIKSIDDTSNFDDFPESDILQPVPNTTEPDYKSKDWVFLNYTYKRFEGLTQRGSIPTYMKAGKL

EIF2AK4, construct: aa191-1024, human (from UniProt Q9P2K8)
relative phosphorylation
Settings	at +1	at +2	at +3	at +4	at -1	at -2	at -3	at -4	at -5
A fixed	0.622	0.832	0.837	0.891	0.732	0.958	0.968	1.01	1.07
D fixed	0.335	1.1	0.504	0.75	1.22	2.28	1.62	1.47	1.12
E fixed	0.537	0.351	0.539	0.788	0.894	2.2	1.68	1.16	1.06
F fixed	2.06	0.645	0.948	0.945	0.836	1.18	0.891	0.86	1.07
G fixed	0.757	0.811	2.04	1.16	1.03	1.02	0.924	1.1	1.06
H fixed	1.04	1.8	1.02	0.969	1.12	0.964	0.901	1.18	1.17
I fixed	0.858	0.689	0.699	0.896	0.635	0.533	0.76	0.77	0.823
K fixed	0.724	0.717	1.11	1.08	0.78	0.555	0.695	0.945	1.04
L fixed	0.621	0.631	0.75	0.976	1.15	0.693	1.02	0.829	0.726
M fixed	1.68	0.59	0.826	0.973	1.11	1.09	1.08	0.846	0.825
N fixed	0.933	0.841	0.829	0.867	1.38	1.21	0.959	1.04	0.923
P fixed	0.162	0.475	1.9	1.07	0.629	0.643	0.699	0.825	0.824
Q fixed	1.28	0.611	0.774	0.811	1.26	0.968	0.976	0.997	0.881
R fixed	1.03	1.98	1.28	1.2	1.08	0.654	0.844	0.882	1.26
V fixed	0.996	0.773	0.74	0.849	0.961	0.52	0.727	0.838	0.926
W fixed	1.24	1.29	0.998	1.62	1.04	0.698	1.16	1.25	1.25
Y fixed	2.13	2.85	1.2	1.16	1.13	0.828	1.1	1	0.975
pThr fixed	0.715	0.592	0.686	0.736	0.803	1.16	0.969	1.03	0.724
pTyr fixed	0.656	0.789	0.83	1.55	1.43	0.652	1.01	0.867	0.881

DMPK, construct: aa24-433, human (from UniProt Q09013)
relative phosphorylation
Settings	at +1	at +2	at +3	at +4	at -1	at -2	at -3	at -4	at -5
A fixed	0.884	1.09	0.772	0.749	0.934	0.551	0.572	0.816	0.664
D fixed	0.54	1.27	0.59	0.767	0.487	0.294	0.309	0.393	0.359
E fixed	0.471	0.67	0.579	0.643	0.362	0.268	0.284	0.456	0.379
F fixed	0.68	0.838	0.963	0.954	0.739	0.349	0.269	0.657	0.8
G fixed	1.68	0.858	1.04	0.945	1.08	0.537	0.448	0.959	0.915
H fixed	1.2	1.38	1.14	1.05	1.01	0.716	0.776	0.898	1.07
I fixed	1.2	1.12	1.64	0.829	0.585	0.43	0.343	0.946	1.11
K fixed	1.05	1.23	1.03	1.47	2.01	2.67	3.21	2.42	2.72
L fixed	0.967	0.883	1.04	1.09	0.674	0.418	0.343	0.749	0.847
M fixed	0.961	0.75	0.779	0.916	0.755	0.485	0.297	0.749	0.756
N fixed	1.29	0.779	0.83	1.01	1.2	0.747	0.43	0.864	0.675
P fixed	0.622	0.808	0.79	1.18	1.74	0.474	0.461	0.796	0.872
Q fixed	1.25	1.06	0.882	1.07	1.22	0.933	0.877	0.922	0.882
R fixed	1.87	1.28	1.54	1.47	2.18	6.76	7.34	3.06	2.66
V fixed	0.943	1.28	1.5	0.825	0.605	0.507	0.369	0.95	0.803
W fixed	0.641	0.925	0.926	1.21	0.644	0.431	0.304	0.647	0.657
Y fixed	0.742	0.796	0.971	0.832	0.78	0.428	0.371	0.719	0.839
pThr fixed	0.678	1.19	0.865	0.862	0.521	0.441	0.48	0.575	0.561
pTyr fixed	0.522	0.996	0.772	0.617	0.52	0.387	0.493	0.548	0.689

STK38L, construct: Full length, human (from UniProt Q9Y2H1)
relative phosphorylation
Settings	at +1	at +2	at +3	at +4	at -1	at -2	at -3	at -4	at -5
A fixed	0.661	1.19	0.645	0.811	0.671	0.847	0.656	1.03	0.951
D fixed	1.16	2.27	1.07	1.33	0.872	0.675	0.648	0.889	0.79
E fixed	1.1	0.721	0.987	1.21	0.636	0.712	0.554	0.812	0.582
F fixed	0.851	0.661	1.04	1.1	0.477	0.747	0.435	0.654	0.538
G fixed	1.38	2.25	1.6	1.15	1.68	1.2	0.833	1.39	0.971
H fixed	0.83	2.05	1.22	1.11	0.979	1.6	1.18	1.26	4.33
I fixed	0.832	0.568	0.826	0.711	0.238	0.265	0.23	0.403	0.345
K fixed	0.847	0.396	0.865	0.812	1.9	2.07	2.1	1.55	1.65
L fixed	0.804	0.421	0.788	0.856	0.619	0.315	0.243	0.481	0.433
M fixed	1.48	0.406	0.843	1.01	0.768	0.487	0.399	0.849	0.508
N fixed	1.61	1.09	1.22	1.24	1.43	1.53	1.03	0.989	0.792
P fixed	0.532	0.81	1.27	1.24	2.64	1.45	1.94	1.89	0.701
Q fixed	1.36	1.1	0.932	1.15	1.37	1.18	0.827	0.982	0.629
R fixed	0.577	0.391	0.59	0.588	1	1.9	4.36	1.63	1.7
V fixed	0.919	0.854	0.668	0.686	0.372	0.358	0.324	0.423	0.457
W fixed	1.09	0.958	1.39	0.955	0.545	1.01	0.598	0.942	0.884
Y fixed	0.961	0.856	1.04	1.05	0.799	0.64	0.657	0.829	0.741
pThr fixed	1.29	0.941	0.91	1.61	0.457	0.842	0.692	0.698	0.46
pTyr fixed	1.26	1.04	0.87	1.05	0.76	0.814	0.914	0.895	0.672
